Measurements published in the supplement of paper PMC9112550, “Optimization of the antimicrobial peptide Bac7 by deep mutational scanning” (BMC Biology, 2022).

Each sequence was assayed on Escherichia coli TOP10 (assay: shrunken log2 fold change of peptide-encoding DNA abundance (4.5 h post-induction vs induction); higher = less antimicrobial activity (less host growth inhibition)). Details: time post-induction: 4.5 h; library: site-saturation at positions 5, 18, 19, 20.
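Note: peptides expressed intracellularly from a pBAD plasmid library in pooled LB shake-flask culture, induced with 0.3% L-arabinose, DNA abundance read by NGS, three biological replicates, DESeq2 with apeglm shrinkage.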

Sequence	shrunken log2 fold change
RRIRDRPPRLPRPRPRPISDPRP	0.0148
RRIRPRPPRLPRPRPRPRKMPRP	0.0337
RRIRKRPPRLPRPRPRPIALPRP	0.0143
RRIRERPPRLPRPRPRPNEVPRP	0.0321
RRIRGRPPRLPRPRPRPDCLPRP	0.975
RRIRQRPPRLPRPRPRPTCMPRP	-0.163
RRIRVRPPRLPRPRPRPYCYPRP	-0.745
RRIRFRPPRLPRPRPRPENYPRP	0.0219
RRIRLRPPRLPRPRPRPGRLPRP	0.0389
RRIRLRPPRLPRPRPRPTKDPRP	-0.183
RRIRIRPPRLPRPRPRPRKLPRP	-0.529
RRIRRRPPRLPRPRPRPMMDPRP	-0.00156
RRIRCRPPRLPRPRPRPWFHPRP	-1.28
RRIRQRPPRLPRPRPRPSTVPRP	-0.534
RRIRSRPPRLPRPRPRPSMDPRP	-0.514
RRIRMRPPRLPRPRPRPNDCPRP	-0.00865
RRIRLRPPRLPRPRPRPKDKPRP	0.112
RRIRLRPPRLPRPRPRPISEPRP	0.00295
RRIRMRPPRLPRPRPRPGPLPRP	0.532
RRIRNRPPRLPRPRPRPHVPPRP	-0.528

Sequence	shrunken log2 fold change
RRIRTRPPRLPRPRPRPIIRPRP	-0.0034
RRIRNRPPRLPRPRPRPEMCPRP	0.00911
RRIRNRPPRLPRPRPRPLEHPRP	-0.0225
RRIRIRPPRLPRPRPRPYGAPRP	-0.199
RRIRMRPPRLPRPRPRPQGFPRP	-0.00865
RRIRNRPPRLPRPRPRPWVVPRP	0.0152
RRIRRRPPRLPRPRPRPNVVPRP	0.0745
RRIRKRPPRLPRPRPRPVSRPRP	0.652
RRIRNRPPRLPRPRPRPRFEPRP	0.108
RRIRCRPPRLPRPRPRPEVEPRP	0.254
RRIRMRPPRLPRPRPRPFAGPRP	-0.0745
RRIRNRPPRLPRPRPRPIYNPRP	-0.642
RRIRTRPPRLPRPRPRPGHKPRP	-0.106
RRIRSRPPRLPRPRPRPIQYPRP	-0.383
RRIRYRPPRLPRPRPRPCFNPRP	-0.262
RRIRNRPPRLPRPRPRPITDPRP	-1.28
RRIRMRPPRLPRPRPRPYDIPRP	0.0444
RRIRARPPRLPRPRPRPRLGPRP	0.606
RRIRCRPPRLPRPRPRPLSPPRP	0.107
RRIRYRPPRLPRPRPRPTIYPRP	-0.939

Sequence	shrunken log2 fold change
RRIRGRPPRLPRPRPRPSIFPRP	0.415
RRIRGRPPRLPRPRPRPLWPPRP	0.836
RRIRSRPPRLPRPRPRPMEDPRP	0.189
RRIRTRPPRLPRPRPRPIRFPRP	-0.0183
RRIRIRPPRLPRPRPRPDWIPRP	-1.16
RRIRHRPPRLPRPRPRPRSKPRP	3.34
RRIRTRPPRLPRPRPRPYEGPRP	-0.0536
RRIRGRPPRLPRPRPRPGIVPRP	0.957
RRIRCRPPRLPRPRPRPDKIPRP	-0.24
RRIRGRPPRLPRPRPRPPSHPRP	0.597
RRIRGRPPRLPRPRPRPVWWPRP	0.997
RRIRSRPPRLPRPRPRPLCAPRP	0.281
RRIRKRPPRLPRPRPRPDNQPRP	-0.233
RRIRQRPPRLPRPRPRPDIIPRP	-0.0199
RRIRNRPPRLPRPRPRPETQPRP	0.162
RRIRVRPPRLPRPRPRPGCIPRP	-0.0275
RRIRLRPPRLPRPRPRPPFAPRP	0.543
RRIRARPPRLPRPRPRPTTEPRP	0.443
RRIRSRPPRLPRPRPRPYDIPRP	-0.0295
RRIRYRPPRLPRPRPRPLTCPRP	-0.566
